Laboratory results: publication PMC11779849

Experiments:
[1] = molecular target: human P-cadherin K14E mutant ectodomain (EC1-5) (human); assay: single-molecule AFM force spectroscopy; as the -CQY experiment but with 40 nM CQY684 Fab in the buffer (+CQY); Pcad EC1-5 on cantilever and substrate; 1 µm/s; Tris buffer pH 7.5 with 2.5 mM CaCl2
[2] = molecular target: human P-cadherin K14E mutant ectodomain (EC1-5) (human); assay: single-molecule AFM force spectroscopy; biotinylated Pcad EC1-5 held by streptavidin on PEG tethers on both the cantilever and the glass substrate; no CQY684 (-CQY); tip retracted at 1 µm/s; Tris buffer pH 7.5, 10 mM Tris-HCl, 100 mM NaCl, 10 mM KCl, 2.5 mM CaCl2; peak forces from Gaussian fits of unbinding force histograms
[3] = molecular target: human P-cadherin W2A mutant ectodomain (EC1-5) (human); assay: single-molecule AFM force spectroscopy; as the -CQY experiment but with 40 nM CQY684 Fab in the buffer (+CQY); Pcad EC1-5 on cantilever and substrate; 1 µm/s; Tris buffer pH 7.5 with 2.5 mM CaCl2
[4] = molecular target: human P-cadherin W2A mutant ectodomain (EC1-5) (human); assay: single-molecule AFM force spectroscopy; biotinylated Pcad EC1-5 held by streptavidin on PEG tethers on both the cantilever and the glass substrate; no CQY684 (-CQY); tip retracted at 1 µm/s; Tris buffer pH 7.5, 10 mM Tris-HCl, 100 mM NaCl, 10 mM KCl, 2.5 mM CaCl2; peak forces from Gaussian fits of unbinding force histograms

| peak unbinding force (with 40 nM CQY684) [1] [pN] | peak unbinding force [2] [pN] | peak unbinding force, first Gaussian (with 40 nM CQY684) [3] [pN] | peak unbinding force, second Gaussian (with 40 nM CQY684) [3] [pN] | peak unbinding force [4] [pN] | Substance |
| --- | --- | --- | --- | --- | --- |
| 31 | 33.1 |  |  |  | human P-cadherin K14E mutant ectodomain (EC1-5) (domain or fragment) |
|  |  | 35.1 | 55.8 | 24.5 | human P-cadherin W2A mutant ectodomain (EC1-5) (domain or fragment) |
